Data from publication PMC7041945, “Misfolded proteins bind and activate death receptor 5 to trigger apoptosis during unresolved endoplasmic reticulum stress” (eLife, 2020).

Tests used:
Format in all cases: cell-based, Homo sapiens
[1] = tested on: caspase 8 in HCT116 GFP-Trap immunoprecipitates; test: Caspase 8 activity (caspase glo 8) of GFP immunoprecipitates (beads)
Procedure: (§1) 15 cm dishes were seeded with 4 million HCT116 cells and allowed to recover for 18 hr prior to transfection. Samples were then transfected for 24 hr with the GFP-tagged ER trafficked protein, cytosolic GFP, or empty vector. To harvest apoptotic and living cells for each sample, all media and washes were collected. Cells were scraped in 2 ml of cold PBS and combined with the media and washes. Samples were centrifuged to pellet cells, washed with 1 ml cold PBS, and flash frozen in liquid N2 prior to lysis.
(§2) The cell pellets were resuspended in 750 μl of 30 mM HEPES pH 7.2, 150 mM NaCl, 1% Triton X-100 with 1x Roche protease inhibitor cocktail (if used subsequently for caspase glo 8 assay) or with 5x Roche protease inhibitor cocktail (if used for immunoblotting). The cells were lysed by mechanical shearing through a 25G needle for 13–15 plunges followed by incubation on ice for 30 min. The lysate was centrifuged at 2000xg for 5 min to remove debris and then incubated with 30 μl of GFP-Trap magnetic agarose beads (Chromotek gtma-20) for 4 hr at 4°C. The beads were then washed with 750 μl of lysis buffer for 10 min at 4°C for three rounds.
For measuring caspase activity, a fifth of the beads was resuspended in 40 μl of 30 mM HEPES pH 7.2, 150 mM NaCl, 1% Triton X-100. 10 μl of the resuspended mixture was incubated with 10 ul of the caspase glo 8 luminogenic substrate (Promega #PRG8200) for 45 min at RT before measuring luminescence.

[2] = tested on: caspase 8 in HCT116 lysates; test: Size-exclusion chromatography of cell lysates with caspase 8 activity; details: relative to GFP; 24 hr
Procedure: Size-exclusion fractionation of cell lysate was performed as previously described in [Lu et al. (2014)] with minor modifications.
In a 15 cm dish, 4 million HCT116 cells were seeded 18 hr prior to transfection (see Transient transfections for protein expression). 24 hr post-transfection, cells were harvested by collecting all media (to collect detached, dying cells) and scraping the dish in 3 ml of cold PBS. The cell suspension was centrifuged at 500xg to pellet the sample. Cells were washed with an additional 1 ml of cold PBS, pelleted, and flash frozen in liquid N2 prior to lysis.
Cells were resuspended in 600 μl of lysis buffer (30 mM HEPES pH 7.2, 150 mM NaCl, 1% Triton X-100) with 1x protease inhibitor (Roche) and lysed through a 25G needle with 10 passes. […]
For the caspase 8 activity assay, 10 μl of each fraction was incubated with 10 μl of the caspase glo 8 substrate (Promega #PRG8200) in a 384-well white walled plate (Corning 3574) for 45 min at RT before measuring luminescence on a Spectramax-M5 plate reader.
For Western blots, every three fractions were pooled for a total of 1.5 ml and subjected to TCA precipitation to concentrate the protein content. Samples were then analyzed by SDS-PAGE and immunoblotted for GFP and DR5.

[3] = tested on: XBP1 mRNA in HCT116 cells; test: RT-PCR for Xbp1 mRNA splicing; details: HCT116, 24 hr
Procedure: Cells were grown in 6-well plates and harvested with 0.5 ml of TRIzol reagent (Life Technologies) per manufacturer's protocol to extract RNA. […] The reverse transcription product was diluted to 200 μl with 10 mM Tris-HCl pH 8.2 and used at 1:100 dilution for subsequent RT-PCR reactions. 2 μl of cDNA was added to 0.2 μM of forward and reverse primers ([…]; Hs_XBP1_Rev: [NT]), 0.2 mM of each dNTP, 0.5 units of Taq DNA polymerase (Thermo Scientific). The reaction was set at an annealing temperature of 60.5°C with an extension time of 30 s for 26 cycles.

DR5 = test: GFP immunoprecipitation: DR5 (FADD, caspase 8) recovered with GFP-tagged protein, Western blot; details: for fraction of DR5 IP'ed: GFP IP
Procedure: as §1, §2
For Western blots, samples were eluted by adding 35 μl of non-reducing SDS gel loading buffer (50 mM Tris-HCl (pH 6.8), 2% SDS, 0.1% bromophenol blue, 10% glycerol) and incubated for 10 min at 70°C. The beads were then magnetically removed from the eluted sample before adding DTT to a final concentration of 25 mM. The entire sample was loaded onto the gel and immunoblotted for DR5, caspase 8, and GFP, in that order.

HCT116 cells = test: Trypan blue staining, automated cell counting; design: key to Trypan blue- / Trypan blue+ / avg Trypan blue- / avg Trypan blue+: % of cells (Trypan blue positive or negative); details: for Dead concentration / Live concentration / Total Concentration / Viability (%): hct mpz, BF
Procedure: Cells seeded in a 6-well plate were transfected with the specified plasmid for 24 hr and harvested via trypsinization in complete media and ultimately resuspended in 400 μl of media to obtain a concentration of 1.0–3.0 × 10^6 cells/ml. The cell suspension was then mixed 1:1 with 0.4% Trypan blue (Sigma-Aldrich) and incubated at 37°C for 30 min. The percentage of cells staining positive for was then quantified using the Countess II FL Automated Cell Counter (ThermoFisher, catalog # AMQAF1000) default brightfield settings with disposable slides.

[4] = biological replicate 1 (05.22.2019)
[5] = biological replicate 2 (05.24.2019)
[6] = biological replicate 3 (05.24.2019)

B1: MPZ-GFP: myelin protein zero with a C-terminal monomeric EGFP, expressed from plasmid (protein)
chain: IVVYTDREVHGAVGSRVTLHCSFWSSEWVSDDISFTWRYQPEGGRDAISIFHYAKGQPYIDEVGTFKERIQWVGDPRWKDGSIVIHNLDYSDNGTFTCDVKNPPDIVGKTSQVTLYVFEKVPTRYGVVLGAVIGGVLGVVLLLLLLFYVVRYCWLRRQAALQRRLSAMEKGKLHKPGKDASKRGRQTPVLYAMLDHSRSTKAVSEKKAKGLGESRKDKK
modifications: left off: monomeric EGFP, C-terminal, kept
notes: myelin protein zero with a C-terminal monomeric EGFP, expressed from plasmid
With B1 the “average fold change in caspase 8 activity relative to empty” value ([1]; GFP IP beads, run 2019-02-05) was 2.174 fold, the “average fold change (relative to empty average)” value ([1]; GFP beads, dilution 0.0666667, average of rep1-rep3) was 3.5 and the “fold change in caspase 8 activity, Mean ± SEM (unpaired t test)” value ([1]; GFP beads, n=3) was 2.621 ± 0.4397, n=3 fold. For the same molecule, the “average fold change in caspase 8 activity relative to empty” value ([1]; GFP beads, sheet 2018-02-11 (compiled as Rep 2019-02-11)) was 3.5 fold, the “fold change in caspase 8 activity, average of averages” value ([1]; GFP beads, three runs compiled) was 2.621 fold and the “caspase 8 activity of immunoprecipitates compared to empty beads” value ([1]; MPZ-GFP immunoprecipitates, 24 hr post-transfection) was 2–3 fold. For the same molecule, the “caspase 8 activity in high MW size exclusion fractions” value [2] was “increased caspase 8 activity in high-molecular w8 (MW) fractions”, the “XBP1 mRNA splicing” value [3] was “initiated a few hours post-transfection with MPZ-GFP and later attenuated” and the “fraction of DR5 IP'ed” value (DR5; run 2018-02-27) was 0.1051. For the same molecule, the “fraction of DR5 IP'ed” value (DR5; sheet 2019-12-12, replicate 2) was 0.0582, the “fraction of DR5 IP'ed” value (DR5; sheet 2019-12-12, replicate 3) was 0.1364 and the “DR5 complex proteins in GFP immunoprecipitates” value (DR5; HCT116, 24 hr post-transfection) was “detected DR5, FADD, and caspase 8”. The “fraction IP'ed” value (DR5; Rep 1 (first series)) was 0.1051, the “fraction IP'ed” value (DR5; Rep 2 (first series)) was 0.0582 and the “fraction IP'ed” value (DR5; Rep 3 (first series)) was 0.1364. The “% IP'ed” value (DR5; average of all replicates) was 9.991%, the “fraction IP'ed, average” value (DR5; average of all replicates) was 0.09991 and the “beads (*diluton factor)” value (DR5; Rep 1 (first series)) was 1453332. For the same molecule, the “beads (*diluton factor)” value (DR5; Rep 2 (first series)) was 11158310, the “beads (*diluton factor)” value (DR5; Rep 3 (first series)) was 12501020 and the “input (*dilution factor)” value (DR5; Rep 1 (first series)) was 13824070. For the same molecule, the “input (*dilution factor)” value (DR5; Rep 2 (first series)) was 191711370, the “input (*dilution factor)” value (DR5; Rep 3 (first series)) was 91647520 and the “Mean ± SEM (fraction IP'ed)” value (DR5; unpaired t test sheet, GFP n=5, MPZ n=3, INS n=2, RHO n=2) was 0.09991 ± 0.02272, n=3. For the same molecule, the “95% confidence interval (difference between means)” value (DR5; vs. GFP, fraction IP'ed) was 0.04255 to 0.1369, the Difference between means (DR5; vs. GFP, fraction IP'ed, ± SEM) was 0.0897 ± 0.01927 and the “Trypan blue+” value (HCT116 cells; MPZ-GFP, Rep 1) was 47.8261. For the same molecule, the Trypan blue- (HCT116 cells; MPZ-GFP, Rep 1) was 52.1739, the “Trypan blue+” value (HCT116 cells; MPZ-GFP, Rep 2) was 36.3817 and the Trypan blue- (HCT116 cells; MPZ-GFP, Rep 2) was 63.6183. For the same molecule, the “Trypan blue+” value (HCT116 cells; MPZ-GFP, Rep 3) was 29.5129, the Trypan blue- (HCT116 cells; MPZ-GFP, Rep 3) was 70.4871 and the “avg Trypan blue+” value (HCT116 cells; MPZ-GFP, avg of Rep 1-3) was 37.9069. The “avg Trypan blue-” value (HCT116 cells; MPZ-GFP, avg of Rep 1-3) was 62.0931, the Dead concentration (HCT116 cells; [4]) was 3.87E+05 and the Live concentration (HCT116 cells; [4]) was 4.22E+05. The “Total Concentration” value (HCT116 cells; [4]) was 8.09E+05, the “Viability (%)” value (HCT116 cells; [4]) was 52.1739% and the Dead concentration (HCT116 cells; [5]) was 1.07E+06. For the same molecule, the Live concentration (HCT116 cells; [5]) was 1.88E+06, the “Total Concentration” value (HCT116 cells; [5]) was 2.95E+06 and the “Viability (%)” value (HCT116 cells; [5]) was 63.6183%. The Dead concentration (HCT116 cells; [6]) was 1.21E+06, the Live concentration (HCT116 cells; [6]) was 2.89E+06 and the “Total Concentration” value (HCT116 cells; [6]) was 4.09E+06. For the same molecule, the “Viability (%)” value (HCT116 cells; [6]) was 70.4871%.
